Test results as given in patent US20250042970A1 (AURINIA PHARMACEUTICALS, published 2025).
Read-outs that look alike come from different tables or passages of the source. Ends that are not written are not given here.

T1: FLAG-tagged cynomolgous APRIL (cynomolgus monkey, UniProt A0ACM8R0G4 110-250 (rhesus entry))
T1 construct: FLAG-tagged, expressed with TPA signal peptide; also called cyAPRIL
T1 sequence: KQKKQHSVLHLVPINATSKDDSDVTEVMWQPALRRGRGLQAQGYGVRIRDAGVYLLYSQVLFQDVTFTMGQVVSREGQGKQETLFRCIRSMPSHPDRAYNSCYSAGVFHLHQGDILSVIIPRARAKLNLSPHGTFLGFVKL

T2: FLAG-tagged recombinant human APRIL (human, UniProt O75888 105-250)
T2 construct: KINEXA ligand; also called huAPRIL
T2 sequence: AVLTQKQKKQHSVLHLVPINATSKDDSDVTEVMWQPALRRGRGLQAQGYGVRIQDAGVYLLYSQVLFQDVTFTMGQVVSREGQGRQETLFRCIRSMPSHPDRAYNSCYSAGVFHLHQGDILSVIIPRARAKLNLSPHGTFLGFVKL


What was measured:
[1] = biological target: T1, FLAG-tagged cynomolgous APRIL; assay: BIACORE SPR
Protocol: (§1) For human BAFF, cynomolgus monkey APRIL, and mouse APRIL measurements, mouse monoclonal antibody (IgG1) anti-FLAG M2 (Sigma Aldrich, Cat. No. F1804) was immobilized on CM3 sensor chips (GE Healthcare, Cat. No. BR-1005-41) according to the manufacturer's protocol. Antibody was diluted to 30 μg/ml in immobilization buffer (10 mM pH 5±0.20; GE Healthcare; GE Healthcare, Catalog No. BR-1003-51). […] Unreacted sites were quenched with 35 μl of 1M ethanolamine-HCl, pH 8.5 (GE Healthcare, GE Healthcare, Cat. No. BR-1000-50). This procedure typically yielded 3,000-4,000 response units (RU) of coupled antibody.
(§2) The fusion polypeptides were diluted in HBS-EP buffer and flowed over ligand-coated sensor chips. The variant BCMA-Ig and surrogate control fusion proteins were injected at three concentrations (1.5 nM, 15 nM, and 150 nM at 30 μl/min for 2 minutes per association phase) in a single binding cycle, followed by a 20 minute incubation with HBS-EP buffer containing no protein at the same flow rate. A similar protocol was followed for Z-TACI-Ig, except that the injections were at 4.5 nM, 45 nM, and 450 nM.
(§3) The various fusion proteins described above were expressed and purified as described previously (Examples 2 and 3 for the CET1019AS based plasmids and Examples 7 and 8 for the pcDNA based plasmids). […] The BAv9-1-Ig Fc proteins typically exist in solution as a dimeric fusion protein. The purified fusion proteins were assayed for binding activity using BIACORE (Example 9) and KINEXA (Example 11) assays.

[2] = biological target: T3, FLAG-tagged human BAFF (human, UniProt Q9Y275 134-285, limits assumed); assay: BIACORE SPR
T3 construct: used in BIACORE (Ex. 9) and KINEXA (Ex. 11); also called huBAFF
Protocol: as §1, §2, §3

[3] = biological target: T2, FLAG-tagged recombinant human APRIL; assay: KinExA
Protocol: (§4) Equilibrium measurements were performed using FLAG-tagged, recombinant huBAFF and huAPRIL ligands. Fixed ligand concentrations of human BAFF or human APRIL were incubated with serial dilutions of the variant BCMA ECD-Ig fusion polypeptides, and free ligand was detected in a KINEXA 3200 Instrument. variant BCMA ECD-Ig fusion polypeptides were first diluted in equilibration buffer (1×PBS, pH 7.4, 1 mg/ml BSA) to a range of concentrations from 10 nM to 100 fM. The linear portion of the dilution series was typically 2-fold. Ligands were diluted in equilibration buffer to fixed concentrations ranging from 5 to 20 pM and then incubated with the variant BCMA-Ig dilutions in total reaction volumes ranging from 4.5 to 15 ml. Samples were incubated at room temperature for 48-72 hours to reach equilibrium. For each data point, a fresh column of 850 μl of bead slurry coated with Variant BAv-238475-Ig was introduced into the KINEXA flow cell. Equilibrated samples ranging from 1 to 5 ml reaction volume were injected at a flow rate of 0.25 ml/min. […] The DyLight 649 fluorescent signal was detected using the red filter set (620/30 nanometer excitation filter, 670/40 nanometer emission filter, 645 nanometer dichroic filter) on the KinExA instrument and converted to a voltage signal that was directly proportional to the concentration of free ligand in the equilibrated sample.
as §3

[4] = biological target: T3, FLAG-tagged human BAFF; assay: KinExA
Protocol: as §4, §3

[5] = biological target: T2, FLAG-tagged recombinant human APRIL; assay: KinExA; remark: listed apart in the source
Protocol: as §4
(§5) Table 5 provides the selectivities of exemplary variant BCMA polypeptides with respect to BAFF and APRIL.

[6] = biological target: T3, FLAG-tagged human BAFF; assay: KinExA; remark: listed apart in the source
Protocol: as §4, §5

[7] = biological target: T2, FLAG-tagged recombinant human APRIL; assay: KinExA; remark: listed apart in the source
Protocol: as §4
(§6) The standard kinetic exclusion assays and data analyses described above were performed on protein preparations of various variant BCMA ECD-Ig fusion polypeptides, as well as Z-TACI-Ig and [S40G]huBCMA ECD-Ig fusion polypeptides. FIG. 8A, FIG. 8B, and Table 4 summarize the binding data for representative variant BCMA ECD-Ig polypeptides and controls in molar concentrations of huBAFF or huAPRIL determined by KINEXA binding assays.

[8] = biological target: T3, FLAG-tagged human BAFF; assay: KinExA; remark: listed apart in the source
Protocol: as §4, §6

[9] = biological target: T1, FLAG-tagged cynomolgous APRIL; assay: BIACORE SPR; remark: listed apart in the source
Excerpt: as §1, with “The standard kinetic assay measures binding kinetics of trimeric ligand (e.g., human BAFF, cynomolgus monkey APRIL, mouse BAFF, or mouse APRIL) coated on sensor chips and dimeric analytes (e.g., variant BCMA-Ig fusion proteins) in the mobile phase. […] For” for “For”
as §2
(§7) The analyses described above were performed on protein preparations of representative variant BCMA ECD-Ig fusion polypeptides, as well as the Z-TACI-Ig and [S40G]huBCMA ECD-Ig control fusion polypeptides, and the data is presented in Table 1.

[10] = biological target: T3, FLAG-tagged human BAFF; assay: BIACORE SPR; remark: listed apart in the source
Excerpt: as §1, with “The standard kinetic assay measures binding kinetics of trimeric ligand (e.g., human BAFF, cynomolgus monkey APRIL, mouse BAFF, or mouse APRIL) coated on sensor chips and dimeric analytes (e.g., variant BCMA-Ig fusion proteins) in the mobile phase. […] For” for “For”
as §2, §7

[11] = biological target: T1, FLAG-tagged cynomolgous APRIL; assay: BIACORE SPR; remark: listed apart in the source
Protocol: as §1, §2
(§8) Sequence optimization involved generating revertants from the variant BCMA ECD-Ig molecules using standard site-directed mutagenesis methods such as by SOEing as described herein above. Single as well as multiple revertants from twelve different variant-BCMA-pIg18 were generated, cloned in the pcDNA3.1 vector (Life Technologies, as described in Example 6), expressed and purified as described in Examples 6-8. The resulting proteins were assayed for their binding characteristics using Surface Plasmon Resonance as described in Example 9.

[12] = biological target: T3, FLAG-tagged human BAFF; assay: BIACORE SPR; remark: listed apart in the source
Protocol: as §1, §2, §8

Binder	Kd [1] [pM]	Kd [2] [pM]	Kd [3] [pM]	Kd [4] [pM]	Selectivity for huAPRIL (KD BAFF/KD APRIL) [5] [ratio]	Selectivity for huBAFF (KD APRIL/KD BAFF) [6] [ratio]	Kd [7] [pM]	fold improvement over control [7] [fold]	Kd [8] [pM]	fold improvement over control [8] [fold]	fold improvement KD vs control [9] [fold]	fold improvement KD vs control [10] [fold]	fold improvement over control [11] [fold]	fold improvement over control [12] [fold]
AGQCSQNEYFDHLIRACIPCQLRCSSNTPPLTCQRYCNAGVTNSV (Fc fusion, human, cysteine pairing not given here; also: fused to PIg22 Fc, not in chain, domain: Fc; also called BAv9-1-des[K46-A50]-PIg22; not shown: PIg22: chimeric Fc, CH2 domain of PIg18 (human IgG2 derivative) and CH3 domain of human IgG1) [BAv9-1-[K46-A50]del-pIg22]	41.8	20.4	0.31	0.417										
AGQCSQNEYFDHLIRACIPCQLRCSSNTPPLTCQRYCNAGVTNSVGGGGS (Fc fusion, not shown: PIg18: human IgG2 Fc, Ser at Fc positions 4, 5, 11 (native Cys)) [BAv9-1-5L-pIg18]	42.5	17.5	1.26	0.301										
AGQCSQNEYFDHLIRACIPCQLRCSSNTPPLTCQRYCNAGVTNSVKGTNA (Fc fusion, human, domain: Fc; not shown: PIg22: chimeric Fc, CH2 domain of PIg18 (human IgG2 derivative) and CH3 domain of human IgG1) [BAv9-1-pIg22]	33.7	15.7	0.088	0.537										
AGQCSQNEYFDPLIRACIPCQVRCSSNTPPLTCQRYCNAGVTNSVKGTNA (Fc fusion, also called BAv49 (3)-Ig; BAv49-pIg18; not shown: PIg18: human IgG2 Fc, Ser at Fc positions 4, 5, 11 (native Cys)) [BAv49-Ig]	1450	16.2	313	0.842	0.003	372	313	0.00051	0.842	268				
AGQCSQNEYFDPLVRACIPCQVRCSSNTPPLTCQRYCNAGVTNSVKGTNA (Fc fusion, also called BAv81 (2)-Ig; BAv81-pIg18; not shown: PIg18: human IgG2 Fc, Ser at Fc positions 4, 5, 11 (native Cys)) [BAv81-Ig]	2060	8.31	364	0.246	0.001	1480	364	0.00044	0.246	917				
AGQCSQNEYFDHLIRACIPCQLRCSSNTPPLTCQRYCNAGVTNSVGGGGS (Fc fusion, human, not fully specified (C-terminus); cysteine pairing not given here; also: terminal Fc lysine may be cleaved off ([K278]del), domain: Fc; terminal lysine may be cleaved off; also called BAv9-1-5L-pIg22 [K278]del; not shown: PIg22: chimeric Fc, CH2 domain of PIg18 (human IgG2 derivative) and CH3 domain of human IgG1) [BAv9-1-5L-pIg22]	41.8	16.5	0.611	0.864										
AGQCSQNEYFDHLIRACIPCQLRCSSNTPPLTCQRYCNAGVTNSVGGTNA (Fc fusion, human, domain: Fc; not shown: PIg22: chimeric Fc, CH2 domain of PIg18 (human IgG2 derivative) and CH3 domain of human IgG1) [BAv9-1K46G-pIg22]	45.6	16.5	0.32	0.484										

Now from value to binder:

Kd [1] [pM]	Kd [2] [pM]	Kd [3] [pM]	Kd [4] [pM]	Selectivity for huAPRIL (KD BAFF/KD APRIL) [5] [ratio]	Selectivity for huBAFF (KD APRIL/KD BAFF) [6] [ratio]	Kd [7] [pM]	fold improvement over control [7] [fold]	Kd [8] [pM]	fold improvement over control [8] [fold]	fold improvement KD vs control [9] [fold]	fold improvement KD vs control [10] [fold]	fold improvement over control [11] [fold]	fold improvement over control [12] [fold]	Binder
										0.2	2.2	0.4	4.7	Variant 50238475-Ig (Fc fusion, human, domain: Fc; also called Parent 9; Variant 50238475-PIg18) AGQCSQNEYYDHLIRACISCQIRCSSNNPPPICQRYCNAGVTNSVKGTNAERKSSVECPPSPAPPVAGPSVFLFPPKPKDTLMISRTPEVTCVVVDVSHEDPEVQFNWYVDGVEVHNAKTKPREEQFNSTFRVVSVLTVVHQDWLNGKEYKCKVSNKGLPAPIEKTISKTKGQPREPQVYTLPPSREEMTKNQVSLTCLVKGFYPSDISVEWESNGQPENNYKTTPPMLDSDGSFFLYSKLTVDKSRWQQGNVFSCSVMHEALHNHYTQKSLSLSPGK
				2.1	0.47		0.8		533	0.7	14.8			Variant BAv9-1-Ig (Fc fusion, human, domain: Fc; also called Variant 9-1-Ig; BAv9-1-pIg18) AGQCSQNEYFDHLIRACIPCQLRCSSNTPPLTCQRYCNAGVTNSVKGTNAERKSSVECPPSPAPPVAGPSVFLFPPKPKDTLMISRTPEVTCVVVDVSHEDPEVQFNWYVDGVEVHNAKTKPREEQFNSTFRVVSVLTVVHQDWLNGKEYKCKVSNKGLPAPIEKTISKTKGQPREPQVYTLPPSREEMTKNQVSLTCLVKGFYPSDISVEWESNGQPENNYKTTPPMLDSDGSFFLYSKLTVDKSRWQQGNVFSCSVMHEALHNHYTQKSLSLSPGK
				0.62	1.6		0.1		224	0.6	7.6			Variant BAv11-6-Ig (Fc fusion, human, domain: Fc; also called Variant 11-6-Ig; BAv11-6-PIg18) AGQCSQNEYFDRLLRACIPCQVRCSSNTPPLTCQRYCNAGVTNSVKGTNAERKSSVECPPSPAPPVAGPSVFLFPPKPKDTLMISRTPEVTCVVVDVSHEDPEVQFNWYVDGVEVHNAKTKPREEQFNSTFRVVSVLTVVHQDWLNGKEYKCKVSNKGLPAPIEKTISKTKGQPREPQVYTLPPSREEMTKNQVSLTCLVKGFYPSDISVEWESNGQPENNYKTTPPMLDSDGSFFLYSKLTVDKSRWQQGNVFSCSVMHEALHNHYTQKSLSLSPGK
